Measurements as given in PMC6377630, “NapM enhances the survival of Mycobacterium tuberculosis under stress and in macrophages” (Communications Biology, 2019).

T1: DnaA (M. tuberculosis H37Ra, UniProt P9WNW3 1-507)
T1 construct: also called DnaA protein
T1 sequence: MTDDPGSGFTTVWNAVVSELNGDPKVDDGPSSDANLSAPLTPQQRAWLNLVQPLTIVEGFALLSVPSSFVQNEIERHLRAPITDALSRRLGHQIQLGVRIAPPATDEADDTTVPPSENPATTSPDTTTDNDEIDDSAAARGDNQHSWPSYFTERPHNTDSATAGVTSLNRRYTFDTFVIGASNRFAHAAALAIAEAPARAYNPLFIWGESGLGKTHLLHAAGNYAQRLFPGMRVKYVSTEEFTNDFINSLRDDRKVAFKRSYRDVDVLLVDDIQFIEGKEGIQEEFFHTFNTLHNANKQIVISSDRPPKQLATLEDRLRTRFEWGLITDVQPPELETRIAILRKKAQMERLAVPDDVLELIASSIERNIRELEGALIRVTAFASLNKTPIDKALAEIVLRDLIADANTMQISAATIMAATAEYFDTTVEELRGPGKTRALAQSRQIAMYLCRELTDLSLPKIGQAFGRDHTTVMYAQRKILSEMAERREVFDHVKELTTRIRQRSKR


Experiments:
[1] = target: DnaA (M. tuberculosis H37Ra) (UniProt P9WNW3); experiment: SPR; DnaA immobilised on CM5 chip (5.7 μM), NapM proteins passed over; Biacore 3000; 10 mM HEPES, 150 mM NaCl, 3 mM EDTA, 0.01% surfactant P20, pH 7.4; 25 °C
DnaA = target: T1, DnaA; experiment: as above; conditions: both partners purified

Molecule	Kd [1] [nM]	Kd (DnaA) [nM]
NapM C-terminal domain (CTD) (domain or fragment)	500	
NapM (Rv0047c), nucleoid-associated protein (natural protein) MLELAILGLLIESPMHGYELRKRLTGLLGAFRAFSYGSLYPALRRMQADGLIAENAAPAGTPVRRARRVYQLTDKGRRRFGELVADTGPHNYTDDGFGVHLAFFNRTPAEARMRILEGRRRQVEERREGLREAVARASSSFDRYTRQLHQLGLESSEREVKWLNELIAAERAAPNPAEQT		380
